In the nanobody polyreactivity screen of Harvey et al. (2022):

assay: yeast display, Sf9 membrane polyspecificity reagent, FACS + sequencing; frameworks hold sequencing errors
Outline: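 Genes from sorted yeast were amplified by colony PCR, read by MiSeq 2 × 250 sequencing and filtered on CDR length. These cells carried a synthetic nanobody library in Saccharomyces cerevisiae BJ5465 and were sorted by FACS into low and high (top ~1%) gates on anti-HA and streptavidin fluorescence. Polyreactivity is labelled according to the gate of origin.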

Sequence	polyreactivity (PSR sort gate)
QVQLVESGGGLVQAGGSLRLSCAASGRIFDYYDMGWYRQAPVKERELVAAITSSGTSTYYADSVKGRFTISRDNAKNTVYLQMNSLKPEDTAVYYCNARSIRPWGENGFWGQGTQVTVSS	high polyreactivity
QVQLVESGGGLVQAGGSLRLSCAASGRIFDYYPKGWYRQAPGKERELVAAISVRGGSTYYADSVKGRFTISRDNAKNTVYLQMNSLKPEDTAVYYCAARSWPHRTYYYWGQGTQVTVSS	high polyreactivity
QVQLVESGGGLVQAGGSLRLSCAASGRIFEDYAMGWYRQAPGKERELVARISSGDSTNYADSVKGRFTISRDNAKNTVYLQMNSLKPEDTAVYYCNADRGDLYELRGSGYLDGYWGQGTQVTVSS	low polyreactivity
QVQLVESGGGLVQAGGSLRLSCAASGRIFEFNAMGRYIQAPGKERELVARISYSGGSTYYADSLKGRFTISRDNAKNTVYLQMNSLKPEDTAVYYCAAKPSRYFYNAWGYRQVYQYDYWGQGTQVTVSS	high polyreactivity
QVQLVESGGGLVQAGGSLRLSCAASGRIFEHYPMGWYRPAPGKERELVAAISRSGGRTYYADSVKGRFTISRDNAKNTVTLQMNSVKPEDTEVDYCAAVGVYWYVYPHEYDYWGQGSQVTVSS	high polyreactivity
QVQLVESGGGLVQAGGSLRLSCAASGRIFEKYAMGWYRQAPGKERELVAAISYSGGSTYYADSVKGRFTISRDNAKNTVYLQMNSLKPEDTAVYYCARYSRTQAYDYWGQGTQVTVSS	high polyreactivity
QVQLVESGGGLVQAGGSLRLSCAASGRIFENNAMGWYRPAPGKERELVAAITSGGSTYYADSVKGRFTISRDNAKNTVYLQMNSLKPEDTAVYYCNVTFRVDPWTRTGYDYWGQGTQVTVSS	high polyreactivity
QVQLVESGGGLVQAGGSLRLSCAASGRIFERYAMGWYRQAPGKERELVAAISGGGSTYYADSVKGRFTISRDNAKNTVYLQMNSLTPEDTAFYYCNTRGNSRMDYWGQGTQVTVSS	high polyreactivity
QVQLVESGGGLVQAGGSLRLSCAASGRIFEVYTMGWYRQAPGKERELVAAIDRSTGSTYYADSVKGRFTISRDNAKNTVYLQMHSLKPEDTAVYYCAARGTFLGTRPLGRFDYWGQGTQVTVSS	low polyreactivity
QVQLVESGGGLVQAGGSLRLSCAASGRIFEYAMGWYRQAPGKERELVAGITRSSSTNYADSVKGRFTISRDNAKNTVYLQKNSLKPEDTAVYYCNAESRSWYLYHYDYWGQGTQVTVSS	low polyreactivity
QVQLVESGGGLVQAGGSLRLSCAASGRIFFGYAMGWYRQAPGKERELVATISYNDTSTYYADSVKGRFTISRDNAKNTVYLQMNSLKPEDTAVYYCAKSLGAPASDDYWGQGTQVTVSS	low polyreactivity
QVQLVESGGGLVQAGGSLRLSCAASGRIFFHYAMGWYRQPPGKERELVAVISSSGGITYYADSVKGRFTISRDNAKNTVYLQMNSLKPEDTAVYYCNTVPRPFDRYGYWGQGTQVTVSS	low polyreactivity
QVQLVESGGGLVQAGGSLRLSCAASGRIFFNYAMGWYSQAPGKERELVAAIRGGGSTYADSVKGRFTISRDNAKNTVYLQLNSLKPADTAVYYCAARYSGSPYHTRRYYYWGQGTQVTVSS	high polyreactivity
QVQLVESGGGLVQAGGSLRLSCAASGRIFFPNPMGWYRQAPGKDREFVAGITVSGGSTYYADSVKGRFTISRDNAKNTVYFQMNSLKPEDTAVYYCGAYWAQGTRYEYRLNYWGQGTLVTVSS	low polyreactivity
QVQLVESGGGLVQAGGSLRLSCAASGRIFFRYVMGWYRQAPGKERELVAAISSGGRTYYADSVKGRFTISRDNAKNTVYLQMNSLKPEDTAVYYCAADLLLYSSQDNDYWGQGTQVTVSS	low polyreactivity
QVQLVESGGGLVQAGGSLRLSCAASGRIFFSNAMGWYRQAQGKEREMVASITGGDDTNYADSVKGRFTISRDNAKNTVYLQMNSLKPEDTAVYYCAARAIPSYRWFYRFAPKYDYWGQGTQVTVSS	low polyreactivity
QVQLVESGGGLVQAGGSLRLSCAASGRIFFTYAMGWYRQAPGKERELVASITGSGGSTYYADSVKGRFTISRDNAKNTVYLQMNSLQPEETAVYYCAAALFPRQLYRKFYYWGQGTQVTVSS	low polyreactivity
QVQLVESGGGLVQAGGSLRLSCAASGRIFFVNAMGWYRQAPGKERELVAAISRGGSTNYADSVKGRFTISRDNAKNTVYLQMNSLKPEDTEVYYCNADGSSYWYPVPLDGGDYWGQGTQVTVSS	low polyreactivity
QVQLVESGGGLVQAGGSLRLSCAASGRIFFVYAMGWYRQAPGKERELVAAITASGGSTYYADSVKVRFTISRDNAKNSVYLQMNSLNPEDTAVYDCAAAGYGWGGYREYGWGQGTQVTVSS	low polyreactivity
QVQLVESGGGLVQAGGSLRLSCAASGRIFFWYAMGWYRQAPGKERELVASINWSGVSTYYADSVKGRFTISRDNAKNTVYLQMNSLKPEDTAVYYCNRVRGLYWQRHGYWGQGTQVTVSS	high polyreactivity
QVQLVESGGGLVQAGGSLRLSCAASGRIFFYAMGWYRQAPGKERELVASITTSGTSTYYADSVKGRFTISRDNAKNTVYLQMNSLKPEDTAVYYCNATSNSIRWYDFYYWGQGTQVTVSS	low polyreactivity
